We go through six molecules from patent US20170114420, “[…] WITH BINDING AFFINITY TO NOROVIRUS” (North Carolina State University, published 2017).

Data set [1] has as its target T1, Norovirus GII.2 (Snow Mountain virus) VLP, capsid protein VP1 (Snow Mountain virus (Norovirus GII.2), UniProt Q80RD6 Q80RD6:1-542). Kind of data set: ELONA; ELASA, RT, 3 ug/ml VLP; T/N 12.4 at 1 uM (Table 5). Conditions: chain copies: 180, label: 5' biotin.
The target of data set [2] is T1, Norovirus GII.2 (Snow Mountain virus) …. Description: ELONA; ELASA, RT, 3 ug/ml VLP; T/N 12.9 at 1 uM (Table 5). As to conditions: chain copies: 180, label: 5' biotin.
Data set [3] concerns the target Norovirus GI.1 (Norwalk) VLP, capsid protein VP1 (Norwalk virus (Norovirus GI.1), UniProt Q83884 Q83884:1-530). Description: ELONA; 1 uM aptamer, RT; <2 is negative. Conditions: label: 5' biotin.
The target in data set [4] is T1, Norovirus GII.2 (Snow Mountain virus) …. Description: ELONA. Conditions: chain copies: 180.
The target is the same in data set [5]. Description: ELONA; ELASA, RT, 3 ug/ml VLP; T/N 4.1 at 1 uM (Table 5). As to conditions: chain copies: 180, label: 5' biotin.
Data set [6] has the same target. Description: ELONA; ELASA, RT, 3 ug/ml VLP; T/N 18.1 at 1 uM (Table 5). As to conditions: chain copies: 180, label: 5' biotin.

B1: SMV-25 (ssDNA)
DNA: AGTATACGTATTACCTGCAGCCATCTGTGTGAAGACTATATGGCGCTCACATATTTCTTTCCGATATCTCGGAGATCTTGC
As usually defined, the Kd is the free concentration of one partner at which half of the binding sites on the other are occupied at equilibrium, for simple one-to-one binding. Lower therefore signals tighter binding. In turn, B1 displayed an equilibrium dissociation constant (Kd) in data set [1] of around 232 nM.

B2: SMV-19 (ssDNA)
DNA: AGTATACGTATTACCTGCAGCCACCAGTGTGTTGAGGTTTGAGCACACTGATAGAGTGTCACGATATCTCGGAGATCTTGC
As for B2, the Kd in data set [2] was around 191 nM. Further, in data set [3], the binding result is recorded as “binds”.

B3: M1 (ssDNA)
DNA: AGTATACGTATTACCTGCAGCTGTTTATGGGGATAAACGTATCTAATTCGTGTACTAATCACGATATCTCGGAGATCTTGC
On to B3, for which the binding signal in data set [4] was determined as 10.7 VLP/no VLP ratio.

B4: SMV-26 (ssDNA)
DNA: AGTATACGTATTACCTGCAGCTGACCGAGTGTCTGGTCATTTTCGATGTCTGTTGTTAGGCCGATATCTCGGAGATCTTGC
Regarding B4, the Kd in data set [5] was around 281 nM.

B5: M6-2 (ssDNA)
DNA: AGTATACGTATTACCTGCAGCTGGGAAGAGGTCCGGTAAATGCAGGGTCAGCCCGGAGAGCGATATCTCGGAGATCTTGC
For the molecule B5, the binding signal in data set [4] was 12 VLP/no VLP ratio.

B6: SMV-21 (ssDNA)
DNA: AGTATACGTATTACCTGCAGCCCATGTTTTGTAGGTGTAATAGGTCATGTTAGGGTTTCTGCGATATCTCGGAGATCTTGC
Consider B6, for which the Kd in data set [6] was around 101 nM.
